Reference: publication PMC10821612

What was measured:
[1] = target: AMS0229 E1E2 glycoprotein on HCV pseudoparticles (HCVpp) (Hepatitis C virus (genotype 1a))
[2] = target: UKNP1.2.3 E1E2 glycoprotein on HCV pseudoparticles (HCVpp) (Hepatitis C virus)
[3] = target: UKNP2.4.1 E1E2 glycoprotein on HCV pseudoparticles (HCVpp) (Hepatitis C virus (genotype 2))

## Soluble CD81 LEL with Strep-tag (soluble version of the long external loop of the CD81 receptor) (domain or fragment)
[1]
  IC50 of neutralisation of HCVpp infection of Huh-7 cells (luciferase): 92 µg/mL
[2]
  IC50 of neutralisation of HCVpp infection of Huh-7 cells (luciferase): 85 µg/mL
[3]
  IC50 of neutralisation of HCVpp infection of Huh-7 cells (luciferase): 82 µg/mL
